Data: US20050084496A1 (GOVERNMENT OF THE UNITED STATES OF AMERICA REP BY THE SECR …, published 2005)

How the values were obtained:
sCD4 = target: T1, sCD4 (UniProt P01730 26-394); assay: ELISA, 100 ng target on plate, detected with anti-scytovirin rabbit polyclonal
T1 construct: Printed only as sCD4 (soluble CD4)

BSA = BSA (UniProt P02769 25-607); assay: as above
human serum albumin = target: T2, human serum albumin (human, UniProt P02768 25-609); assay: as above
T2 construct: also called HSA; HAS
T2 sequence (P02768 25-609 limits assumed): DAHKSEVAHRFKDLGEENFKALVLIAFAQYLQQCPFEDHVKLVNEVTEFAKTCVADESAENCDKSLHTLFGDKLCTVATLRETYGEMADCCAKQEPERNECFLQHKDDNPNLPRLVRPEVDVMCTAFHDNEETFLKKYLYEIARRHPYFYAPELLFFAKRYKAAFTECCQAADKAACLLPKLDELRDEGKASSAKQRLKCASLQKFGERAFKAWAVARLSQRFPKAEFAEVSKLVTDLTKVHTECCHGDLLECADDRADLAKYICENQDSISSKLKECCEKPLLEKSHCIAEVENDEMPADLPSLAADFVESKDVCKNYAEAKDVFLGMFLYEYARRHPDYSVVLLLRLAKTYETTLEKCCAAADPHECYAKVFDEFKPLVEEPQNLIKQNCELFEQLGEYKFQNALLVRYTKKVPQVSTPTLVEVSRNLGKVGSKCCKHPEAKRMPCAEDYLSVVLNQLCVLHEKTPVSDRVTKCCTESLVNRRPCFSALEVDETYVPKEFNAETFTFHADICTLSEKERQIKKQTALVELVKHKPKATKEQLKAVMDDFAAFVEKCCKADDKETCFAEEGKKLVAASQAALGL

[1] = target: T3, glycosylated gp120 (HIV-1SF2 gp120) (HIV-1 SF2, UniProt P03378 32-509, limits assumed, glycosylated); assay: ELISA, glycosylated and nonglycosylated HIV-1SF2 gp120 on plate, serial dilutions of scytovirin
T3 construct: domain: gp120

Chain of BSA (P02769 25-607 limits assumed): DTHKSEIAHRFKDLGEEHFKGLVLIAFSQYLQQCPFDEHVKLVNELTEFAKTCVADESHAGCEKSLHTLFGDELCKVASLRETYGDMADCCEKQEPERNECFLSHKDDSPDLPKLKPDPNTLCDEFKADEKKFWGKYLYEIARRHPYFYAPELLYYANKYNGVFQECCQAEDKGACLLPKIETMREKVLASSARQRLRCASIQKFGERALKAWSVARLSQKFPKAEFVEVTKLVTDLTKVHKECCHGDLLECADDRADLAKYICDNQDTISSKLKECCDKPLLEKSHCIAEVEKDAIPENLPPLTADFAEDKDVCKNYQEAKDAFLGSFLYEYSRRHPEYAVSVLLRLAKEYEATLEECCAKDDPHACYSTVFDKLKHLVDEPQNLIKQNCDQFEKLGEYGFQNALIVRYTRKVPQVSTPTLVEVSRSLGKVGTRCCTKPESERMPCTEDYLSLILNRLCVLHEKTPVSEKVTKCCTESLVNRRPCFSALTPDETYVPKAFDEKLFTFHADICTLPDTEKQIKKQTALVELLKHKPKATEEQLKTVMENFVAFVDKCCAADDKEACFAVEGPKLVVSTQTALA

B1: scytovirin (other)
chain: GSGPTYCWNEANNPGGPNRCSNNKQCDGARTCSSSGFCQGTSRKPDPGPKGPTYCWDEAKNPGGPNRCSNSKQCDGARTCSSSGFCQGTAGHAAA
notes: Natural protein purified from an aqueous extract of cultured Scytonema varium; It has 95 residues, weighs 9,713 Da and has five intrachain disulfides (Cys20-Cys26, Cys32-Cys38, Cys68-Cys74, Cys80-Cys86, Cys7-Cys55); also called wild-type scytovirin; natural scytovirin
B1: no binding (tested: 100 ng of scytovirin) (sCD4); no binding (tested: 100 ng of scytovirin) (BSA); no binding (tested: 100 ng of scytovirin) (human serum albumin). B1: binds [1].
